The source of these data is US20230391888A1 (Sanofi, published 2023).

Numbering of substitutions follows the chain as printed.

In experiment [1] the target is T1, human PD-1 (8986-PD, R&D Systems) (human, UniProt Q15116 25-167). The experiment in a line: SPR, BIAcore 3000; antibody captured by anti-human Fc, antigen as analyte; column head says nM, but kd/ka gives M. The protocol:
(§1) Surface plasmon resonance (SPR) was used to assess the binding of antigens to antibody. Binding of antigens to the antibody constructs was measured using surface plasmon resonance (SPR) with a BIAcore 3000 instrument (GE Healthcare) with HBS-EP buffer (GE Healthcare). Human IL4 (IL004, Millipore) and human IL13 (IL012, Millipore), human HER2 (1129-ER, R&D Systems), human TNFa (H8916, SIGMA Aldrich), human CTLA4 (CT4-H5229, ACRO Biosystems), human PD-1 (8986-PD, R&D Systems), and human IL6Ra (227-SR/CF, R&D Systems) were used as antigens. The anti-human Fc capture antibody (human antibody capture kit, GE Life Sciences) was immobilized via primary amine groups (11000 RU) on a research grade CM5 chip (GE Life Sciences) using standard procedures. […] Binding tests with HER2 was performed by capture of the antigen with the anti-human Fc antibody. The tested antibody constructs were used as analytes and injected at 100 nM concentration for 240 sec with a dissociation time of 300 sec at a flow rate of 30 μL/min. Binding kinetics measurements were done using the captured antibodies with injects of two-fold serial dilutions of the analytes of 3 nM to 100 nM. […] Chip surfaces were regenerated with 2 min injects of the regeneration buffer provided with the capture kit. Sensorgrams were double referenced with a blank chip surface and HBS-EP buffer blanks. Data analysis was performed using the BIAevaluation software v4.1.
In general terms: SPR reads the build-up and loss of mass on a sensor chip optically.

The target of experiment [2] is T2, human IL13 (IL012, Millipore) (human, UniProt P35225 35-146). The experiment is described as above. The protocol:
as §1

The target of experiment [3] is T1, human PD-1 (8986-PD, R&D Systems). The experiment in a line: SPR, BIAcore 3000; antibody captured by anti-human Fc, antigen as analyte. The protocol: as §1
Experiment [4] has as its target T2, human IL13 (IL012, Millipore). Described as above. On the procedure:
as §1

In experiment [5] the target is T3, human CD123-Fc-His fusion protein (internal source) (human, UniProt P26951 19-305).
T3 construct: not shown: Fc and His tag
T3 sequence (looked up): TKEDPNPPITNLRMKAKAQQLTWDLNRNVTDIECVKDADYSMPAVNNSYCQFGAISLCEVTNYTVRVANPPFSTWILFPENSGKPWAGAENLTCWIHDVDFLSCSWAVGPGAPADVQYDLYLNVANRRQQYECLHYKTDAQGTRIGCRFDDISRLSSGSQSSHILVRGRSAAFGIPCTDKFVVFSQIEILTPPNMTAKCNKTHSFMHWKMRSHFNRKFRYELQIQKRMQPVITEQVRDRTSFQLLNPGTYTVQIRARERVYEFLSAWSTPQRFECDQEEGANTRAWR
Briefly: SPR, Biacore 8K; CD123-Fc-His captured by anti-His, antibody as analyte, 1:1 Langmuir fit. On the procedure:
Binding of antigens to the antibody constructs was measured using surface plasmon resonance (SPR) with a BIAcore 8K instrument (GE Healthcare) with HBS-EP+ buffer (GE Healthcare). For binding kinetics and affinity determination human CD3εδ-Fc-His and human CD123-Fc-His fusion proteins (both from internal source) were used as antigens. The anti-His capture antibody (His capture kit, GE Life Sciences) was immobilized via primary amine groups (11000 RU) on a research grade CM5 chip (GE Life Sciences) using standard procedures. Antigens were captured by the anti-His capture chip surface at a flow rate of 10 μL/min for 90 sec to reach antibody binding levels between 10 and 30 RU. […] Dissociation was measured at 30 μL/min by injection of HBS-EP+ buffer for 1200 sec. The chip surface was regenerated by inject of regeneration buffer (His capture kit, GE Life Sciences). Sensorgrams were double referenced with a blank chip surface and H BS-EP+ buffer blanks. Data were fitted with a 1:1 Langmuir binding model for determination of kinetic and affinity constants ka, kd and KD using Biacore 8K Evaluation software v1.11.7442 (GE Healthcare).

Experiment [6] concerns the target CD123 on THP-1 target cells (UniProt P26951 19-378, limits assumed). Briefly: cell-based or functional assay.
Experiment [7] deals with T4, human HER2 (1129-ER, R&D Systems) (human, UniProt P04626 23-652).
T4 construct: also called Receptor tyrosine-protein kinase erbB-2
The experiment in a line: SPR; HER2 captured with the anti-human Fc antibody, antibody constructs as analytes (method in paragraph 368); FIG. 5A-5B. The protocol:
as §1

Experiment [8] concerns the target T4, human HER2 (1129-ER, R&D Systems). The experiment in a line: SPR (BIAcore 3000), binding test with HER2 captured by the anti-human Fc antibody, constructs injected at 100 nM; response as % of theoretical Rmax.
Experiment [9] deals with T2, human IL13 (IL012, Millipore). The experiment in a line: SPR, BIAcore 3000; antibody captured by anti-human Fc, antigen as analyte; the mark X is not explained. The protocol:
as §1, with “Data analysis was performed using the BIAevaluation software v4.1.” left out

Experiment [10] has as its target T5, Human IL4 (IL004, Millipore) (human, UniProt P05112 25-153).
T5 sequence (looked up): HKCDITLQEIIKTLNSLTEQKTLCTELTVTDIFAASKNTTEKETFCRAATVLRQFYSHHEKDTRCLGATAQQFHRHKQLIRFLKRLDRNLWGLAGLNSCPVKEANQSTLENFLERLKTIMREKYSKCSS
The experiment in a line: SPR, BIAcore 3000; antibody captured by anti-human Fc, antigen as analyte; column head says nM, but kd/ka gives M. The protocol: as §1

Experiment [11] has as its target T5, Human IL4 (IL004, Millipore). The experiment in a line: SPR, BIAcore 3000; antibody captured by anti-human Fc, antigen as analyte. The protocol:
as §1

T2 sequence (P35225 35-146 limits assumed): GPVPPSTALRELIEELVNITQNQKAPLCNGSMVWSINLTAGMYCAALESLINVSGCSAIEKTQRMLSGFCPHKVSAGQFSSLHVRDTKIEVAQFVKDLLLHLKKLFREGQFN
T1 sequence (Q15116 25-167 limits assumed): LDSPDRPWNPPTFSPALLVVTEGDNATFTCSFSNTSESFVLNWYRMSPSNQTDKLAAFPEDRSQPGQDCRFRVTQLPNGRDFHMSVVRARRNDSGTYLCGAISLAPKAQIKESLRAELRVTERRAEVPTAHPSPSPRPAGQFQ

B1: PD1 × IL13 bispecific (ID 26, anti-PD1-dsTrasKO2-Fc knob × anti-IL13-huIgG1 hole-RF) (bispecific antibody)
light 1: not shown
heavy 1: not shown
light 2: not shown
heavy 2: EVQLKESGPGLVAPGGSLSITCTVSGFSLTDSSINWVRQPPGKGLEWLGMIWGDGRIDYADALKSRLSISKDSSKSQVFLEMTSLRTDDTATYYCARDGYFPYAMDFWGQGTSVTVSSASTKGPSVFPLAPSSKSTSGGTAALGCLVKDYFPEPVTVSWNSGALTSGVHTFPAVLQSSGLYSLSSVVTVPSSSLGTQTYICNVNHKPSNTKVDKKVEPKSCDKTHTCPPCPAPELLGGPSVFLFPPKPKDTLMISRTPEVTCVVVDVSHEDPEVKFNWYVDGVEVHNAKTKPREEQYNSTYRVVSVLTVLHQDWLNGKEYKCKVSNKALPAPIEKTISKAKGQPREPQVCTLPPSRDELTKNQVSLSCAVKGFYPSDIAVEWESNGQPENNYKTTPPVLDSDGSFFLVSKLTVDKSRWQQGNVFSCSVMHEALHNRFTQKSLSLSPG
notes: PD1 arm is the pseudoFab (dsTrasKO2), IL13 arm the normal Fab
As for B1, the Kd in experiment [1] was found to be 22100 pM; in [2], 5.68 pM. Moreover, the figures for the koff in experiment [3] and in experiment [4] were 0.0029 s⁻¹ and 1.66e-05 s⁻¹, respectively. The kon in experiment [3] came to 131000 M⁻¹ s⁻¹; in experiment [4] it was 2.92e+06 M⁻¹ s⁻¹.

B2: anti-CD3ε-dsTrasKO2 × anti-CD123 (ID 38, alternative anti-CD3ε binding domain) (bispecific antibody, human IgG1, kappa, L234A L235A)
light 1: not shown
heavy 1: not shown
heavy 2: EVQLQQSGPELVKPGASVKMSCKASGYTFTDYYMKWVKQSHGKSLEWIGDIIPSNGATFYNQKFKGKATLTVDRSSSTAYMHLNSLTSEDSAVYYCTRSHLLRASWFAYWGQGTLVTVSAASTKGPSVFPLAPSSKSTSGGTAALGCLVKDYFPEPVTVSWNSGALTSGVHTFPAVLQSSGLYSLSSVVTVPSSSLGTQTYICNVNHKPSNTKVDKKVEPKSCDKTHTCPPCPAPEAAGGPSVFLFPPKPKDTLMISRTPEVTCVVVDVSHEDPEVKFNWYVDGVEVHNAKTKPREEQYNSTYRVVSVLTVLHQDWLNGKEYKCKVSNKALPAPIEKTISKAKGQPREPQVCTLPPSRDELTKNQVSLSCAVKGFYPSDIAVEWESNGQPENNYKTTPPVLDSDGSFFLVSKLTVDKSRWQQGNVFSCSVMHEALHNRFTQKSLSLSPG
light 2: DFVMTQSPSSLTVTAGEKVTMSCKSSQSLLNSGNQKNYLTWYLQKPGQPPKLLIYWASTRESGVPDRFTGSGSGTDFTLTISSVQAEDLAVYYCQNDYSYPYTFGGGTKLEIKRTVAAPSVFIFPPSDEQLKSGTASVVCLLNNFYPREAKVQWKVDNALQSGNSQESVTEQDSKDSTYSLSSTLTLSKADYEKHKVYACEVTHQGLSSPVTKSFNRGEC
Molecule B2 had a dissociation constant (Kd) in experiment [5] of 332 pM. In experiment [6], the “Cytotox EC50 (dead CFSE/7-AAD double positive THP-1 target cells; human pan T cells, effector:target 10:1, 20 h)” value came out at 0.95 pM.

B3: dsTrasKO variant 1 (dsTrasKO1) (antibody, V domains shown)
VH: EVQLVESGGGLVQPGGSLRLSCAASGFNIKDTAIHWVRQAPGKCLEWVAEIYPTNGYTEYADSVKGRFTISADTSKNTAYLQMNSLRAEDTAVYYCSRWGGDGFAAMDYWGQGTLVTVSS
VL: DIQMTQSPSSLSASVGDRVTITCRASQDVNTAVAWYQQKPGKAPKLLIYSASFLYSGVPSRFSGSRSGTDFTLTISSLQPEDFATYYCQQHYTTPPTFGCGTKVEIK
notes: also called dsTrastuKO variant 1; Variant1 (TrasKO1) with VH44C/VL100C disulfide
Take B3: in experiment [7], the binding result was “no binding (tested: 100 nM)”.

B4: dsTrasKO variant 2 (dsTrasKO2) (antibody, V domains shown)
VH: B3 VH with A33Y, A105Y
VL: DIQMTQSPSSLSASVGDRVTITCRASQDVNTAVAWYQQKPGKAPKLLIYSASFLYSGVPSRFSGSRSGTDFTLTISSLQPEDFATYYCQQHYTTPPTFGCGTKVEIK
notes: also called dsTrastuKO variant 2; Variant2 (TrasKO2) with VH44C/VL100C disulfide
As to B4, the binding result in experiment [7] is on record as “no binding (tested: 100 nM)”.

B5: dsTrasKO variant 3 (dsTrasKO3) (antibody, V domains shown)
VH: B3 VH with E50R, E59R
VL: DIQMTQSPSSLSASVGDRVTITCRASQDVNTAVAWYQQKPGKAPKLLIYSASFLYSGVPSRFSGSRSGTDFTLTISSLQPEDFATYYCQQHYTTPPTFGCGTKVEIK
notes: also called dsTrastuKO variant 3; Variant3 (TrasKO3) with VH44C/VL100C disulfide
For the molecule B5, the binding result in [7] is recorded as “no binding (tested: 100 nM)”.

B6: IL13 pseudo-IgG (ID 22) (antibody)
light: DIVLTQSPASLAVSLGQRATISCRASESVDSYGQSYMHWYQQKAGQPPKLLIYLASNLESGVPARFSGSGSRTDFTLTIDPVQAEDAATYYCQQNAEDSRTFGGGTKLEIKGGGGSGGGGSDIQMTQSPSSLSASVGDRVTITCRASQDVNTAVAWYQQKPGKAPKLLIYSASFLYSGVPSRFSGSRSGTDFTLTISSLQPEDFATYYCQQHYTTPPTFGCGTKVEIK
heavy: EVQLKESGPGLVAPGGSLSITCTVSGFSLTDSSINWVRQPPGKGLEWLGMIWGDGRIDYADALKSRLSISKDSSKSQVFLEMTSLRTDDTATYYCARDGYFPYAMDFWGQGTSVTVSSGGGGSGGGGSEVQLVESGGGLVQPGGSLRLSCAASGFNIKDTYIHWVRQAPGKCLEWVAEIYPTNGYTEYADSVKGRFTISADTSKNTAYLQMNSLRAEDTAVYYCSRWGGDGFYAMDYWGQGTLVTVSSDKTHTHHHHHH
notes: also called IL13 mAb Pseudo-IgG
As to B6, in [8], the binding result is listed as “no binding (tested: 100 nM)”. Also, the Kd in experiment [2] came out at 0.425 pM. Besides, the kon in [4] is 1.54e+06 M⁻¹ s⁻¹. In experiment [9], the koff was determined as 6.56e-07 s⁻¹.

B7: IL13 mAb (ID 3, anti-IL13-VL3-IGKC / anti-IL13-VH2-IGHG1) (antibody, human IgG1, kappa, V domains shown)
VH: EVQLKESGPGLVAPGGSLSITCTVSGFSLTDSSINWVRQPPGKGLEWLGMIWGDGRIDYADALKSRLSISKDSSKSQVFLEMTSLRTDDTATYYCARDGYFPYAMDFWGQGTSVTVSS
VL: DIVLTQSPASLAVSLGQRATISCRASESVDSYGQSYMHWYQQKAGQPPKLLIYLASNLESGVPARFSGSGSRTDFTLTIDPVQAEDAATYYCQQNAEDSRTFGGGTKLEIKR
notes: also called IL13mAb-huIgG1
In turn, B7 gave a Kd in [2] of 26.9 pM. In [4], this molecule registered a koff of 3.46e-05 s⁻¹ and a kon of 1.28e+06 M⁻¹ s⁻¹.

B8: IL4 mAb (ID 18, anti-IL4-VL1-IGKC / anti-IL4-VH1-IgG1) (antibody, V domains shown)
VH: QVQLQQSGPELVKPGASVKISCKASGYSFTSYWIHWIKQRPGQGLEWIGMIDPSDGETRLNQRFQGRATLTVDESTSTAYMQLRSPTSEDSAVYYCTRLKEYGNYDSFYFDVWGAGTLVTVSS
VL: DIQMTQSPASLSVSVGDTITLTCHASQNIDVWLSWFQQKPGNIPKLLIYKASNLHTGVPSRFSGSGSGTGFTLTISSLQPEDIATYYCQQAHSYPFTFGGGTKLEIKR
notes: also called IL4mAb-huIgG1
As for B8, in experiment [10], binding was put at a Kd of 1.55 pM. Further, in experiment [11], the koff turned out to be 0.000161 s⁻¹ and the kon is 1.04e+08 M⁻¹ s⁻¹.

One may read the Kd as the free concentration of one partner at which half of the binding sites on the other are occupied at equilibrium, for simple one-to-one binding. A higher Kd goes with lower affinity. As a reminder, the koff is the first-order rate constant of dissociation. By kon is commonly meant the second-order rate constant of association.
